In the assay the target is human CD30 expressed on human peripheral blood eosinophils (human) (UniProt P28908). Nature of the assay: cell-based or functional assay.
Sequence of UniProt P28908 (P28908 19-595): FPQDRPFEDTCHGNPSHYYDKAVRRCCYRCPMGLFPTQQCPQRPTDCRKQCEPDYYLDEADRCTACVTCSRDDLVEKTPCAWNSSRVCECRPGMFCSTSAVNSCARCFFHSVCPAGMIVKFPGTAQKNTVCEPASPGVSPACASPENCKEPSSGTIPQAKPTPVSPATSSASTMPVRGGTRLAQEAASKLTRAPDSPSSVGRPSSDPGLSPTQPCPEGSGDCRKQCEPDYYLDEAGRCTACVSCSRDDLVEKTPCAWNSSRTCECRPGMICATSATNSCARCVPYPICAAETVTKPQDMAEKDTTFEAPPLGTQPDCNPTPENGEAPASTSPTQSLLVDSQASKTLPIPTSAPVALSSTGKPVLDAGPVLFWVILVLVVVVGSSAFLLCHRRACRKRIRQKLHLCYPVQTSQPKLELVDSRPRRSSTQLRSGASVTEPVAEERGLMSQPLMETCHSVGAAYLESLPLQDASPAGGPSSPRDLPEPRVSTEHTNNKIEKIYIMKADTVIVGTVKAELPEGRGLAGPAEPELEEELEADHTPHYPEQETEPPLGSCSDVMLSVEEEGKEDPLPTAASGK

As for “anti-mouse CD30 monoclonal antibody YMSM636.4.10 (Serotec Ltd, Oxford UK)”, the apoptosis of human peripheral blood eosinophils after 4 hours, antibody immobilized at 10 µg/ml is 30%.

In turn, “recombinant mouse CD30 ligand (R&D Systems Inc. Minneapolis, USA) (from UniProt P32972 68-239)” had an apoptosis of human peripheral blood eosinophils after 4 hours, ligand immobilized at 10 µg/ml of 28% and an apoptosis of human peripheral blood eosinophils after 4 hours, ligand immobilized at 100 µg/ml of 35%.

With “mouse anti-human CD30 monoclonal antibody HRS-4 (Immunotech, Marseilles, France)”, the apoptosis of human peripheral blood eosinophils (FITC-Annexin V, flow cytometry), antibody immobilized at 1 µg/ml, 4 hours came to 16.3%; the apoptosis of human peripheral blood eosinophils (FITC-Annexin V, flow cytometry), antibody immobilized at 10 µg/ml, 4 hours worked out at 78.8%; the apoptosis of human peripheral blood eosinophils after 1 hour, antibody immobilized at 10 µg/ml came out at 50%; the apoptosis of human peripheral blood eosinophils after 1 hour, antibody immobilized at 10 µg/ml (comparison with anti-Fas CH-11) amounted to 50%. This substance also displayed an apoptosis of human peripheral blood eosinophils after 4 hours, antibody immobilized at 10 µg/ml of 70%; an apoptosis of human peripheral blood eosinophils after 4 hours, antibody immobilized at 10 µg/ml (comparison with anti-Fas CH-11) of 70%; an apoptosis of human peripheral blood eosinophils after 4 hours, antibody immobilized on polystyrene microbeads of 27.9%.

In the case of “mouse anti-human CD30 monoclonal antibody Ber-H8 (PharMingen, San Diego, Calif.)”, the apoptosis of human peripheral blood eosinophils (FITC-Annexin V, flow cytometry), antibody immobilized at 0.01 µg/ml, 4 hours amounted to 7.8%; the apoptosis of human peripheral blood eosinophils (FITC-Annexin V, flow cytometry), antibody immobilized at 0.1 µg/ml, 4 hours was determined as 11.4%; the apoptosis of human peripheral blood eosinophils (FITC-Annexin V, flow cytometry), antibody immobilized at 1 µg/ml, 4 hours is 44.8%; the apoptosis of human peripheral blood eosinophils (FITC-Annexin V, flow cytometry), antibody immobilized at 10 µg/ml, 4 hours is 71.9%. This substance registered an apoptosis of human peripheral blood eosinophils after 1 hour, antibody immobilized at 10 µg/ml of 50%; an apoptosis of human peripheral blood eosinophils after 1 hour, antibody immobilized at 10 µg/ml (comparison with anti-Fas CH-11) of 50%; an apoptosis of human peripheral blood eosinophils after 4 hours, antibody immobilized at 10 µg/ml of 70%; an apoptosis of human peripheral blood eosinophils after 4 hours, antibody immobilized at 10 µg/ml (comparison with anti-Fas CH-11) of 70%. Further, the apoptosis of human peripheral blood eosinophils after 4 hours, antibody immobilized on polystyrene microbeads turned out to be 44%.

(Values after patent US20040156847A1.)
